Reference: the supplement of paper PMC12764529
± gives the half width of the 95% confidence interval.

Experiments:
[1] = folding stability dG unfold from chymotrypsin proteolysis; higher = more stable
Summary of the method: (§1)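 Sequencing followed digestion of designed mini-proteins with trypsin and chymotrypsin, each at 11 concentrations in threefold dilutions together with a no-protease condition. The mini-proteins were under 80 residues, had no cysteine, sat in a PA-tagged cDNA display construct, and were kept only if AlphaFold2 dimer inter-PAE was above 15. From the counts, Bayesian fitting gave K50, and unfolding free energy was derived against a sequence-predicted unfolded-state K50 and a shared folded-state K50, per protease or combined.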

[2] = folding stability dG unfold (combined trypsin and chymotrypsin); higher = more stable
Summary of the method: as §1

[3] = folding stability dG unfold from trypsin proteolysis; higher = more stable
Summary of the method: as §1

| Sequence | folding stability dG unfold [1] | folding stability dG unfold [2] | folding stability dG unfold [3] |
| --- | --- | --- | --- |
| SAGGKKKYKLIIKIKFKKGDIDKAKKEVEAIANKIKDEFEKKGVKVKVKVSYDKDNDIVYIEVEFEVPSAGG [r13_755_TrMRF] | 4.43 ± 0.082 kcal/mol | 4.24 ± 0.14 kcal/mol | 3.36 ± 0.12 kcal/mol |
| SAGKKIELTFRNPDGWMIRITIEKKPNGGFQITEITWEPYPNGRMSAKIYVPNGKTIEVNSWDDILDALSAG [r5_618_TrROS] | 2.57 ± 0.075 kcal/mol | 2.12 ± 0.12 kcal/mol | 1.09 ± 0.038 kcal/mol |
| SAGGSAGGSAGKTYTLTITTENGKTITLPKDVEVVYDEKTGYLYIKNKKTNKVIKVKLKDSAGGSAGGSAGG [r17_432_TrROS_Hall] | 2.21 ± 0.059 kcal/mol | 2.19 ± 0.079 kcal/mol | 2.13 ± 0.051 kcal/mol |
| SADDDEEQKEKQKPKPQIPIKPVATYNFPDHPFEIWEIDPDNGRIIIRFWGNGWWYEMDPEDGEWEWYPSAG [r14_359_TrROS] | 2.26 ± 0.059 kcal/mol | 2.14 ± 0.14 kcal/mol | 1.81 ± 0.064 kcal/mol |
| SAGGSAGGSAEKVITVWIPLPPGQGVDEIAKEIARYLGFPNIKIDNIQYDPEDGWYQITFKLSAGGSAGGSA [r18_481_TrROS] | 4.163 ± 0.032 kcal/mol | 3.97 ± 0.061 kcal/mol | 3.48 ± 0.096 kcal/mol |
| SAGGDYVKIDFTVMIPTPEQAEEMAEEIKNFFRFMGIKEVKIKVQRNPNNGMYYVTVDIEIRMPPGAVSAGG [r19_92_TrROS] | 5.12 ± 0.1 kcal/mol | 4.82 ± 0.17 kcal/mol | 3.34 ± 0.2 kcal/mol |
| SMKIEVEKLEDGTYVITIEDPGEDDIPVTYKAVVFVDPETGKVYVDRNIEDPNVPPELKELFENFIPGIESA [r9_715_TrMRF] | 3.097 ± 0.018 kcal/mol | 2.92 ± 0.056 kcal/mol | 2.5 ± 0.094 kcal/mol |
| SAGGSAGGSGMTAEEAREKKVAELKAQGYTPVKVEVVETRTDPATGKVTTKIKIEYKSPKGLTSAGGSAGGS [r20_46_JUSTAS] | 0.333 ± 0.12 kcal/mol | 0.275 ± 0.14 kcal/mol | 0.0908 ± 0.081 kcal/mol |
| SAGGSAGGSAGGERVVRFPYTGTLEDVLEAARRLRRLGGVEVGYDPENGVLLARFKGGGLSAGGSAGGSAGG [r7_219_TrMRF] | 1.6 ± 0.046 kcal/mol | 1.25 ± 0.049 kcal/mol | 0.54 ± 0.056 kcal/mol |
| SAGGTIIINFTWSDIKDILDYLKDNKDWKITIWMGNKPVEYPLDDLEEILQNIPMPPGQPFWIEITPSAGGS [r16_377_TrROS] | 4.32 ± 0.14 kcal/mol | 4.36 ± 0.17 kcal/mol | 3.38 ± 0.26 kcal/mol |
| SAGGSAGGSMIKIKVKSKEDVEALIKELEKAGFKVKKVEEVDGKVYFTLENGEKIEIEVVPPESAGGSAGGS [r20_93_TrROS_Hall] | 4.94 ± 0.12 kcal/mol | 5.05 ± 0.34 kcal/mol | 4.24 ± 0.48 kcal/mol |
| SAGGIEIPVNPHPSEDGQPYVMFTLEIEPKDDNGKKQERPIPFMFDSPDDAEEFASEAAPDGYKIRISAGGS [r16_652_TrROS] | 0.196 ± 0.11 kcal/mol | -0.0602 ± 0.15 kcal/mol | -0.86 ± 0.48 kcal/mol |
| SAGGSAMITVKLEGKPVTVEILSREPKGRLVKAQAVVHRPDDGTEKTVSGLLSEEEIEKAIEEALASAGGSA [r15_944_JUSTAS] | 0.143 ± 0.11 kcal/mol | -0.15 ± 0.12 kcal/mol | -0.917 ± 0.32 kcal/mol |
| SAMKIKPGEKVKIKIEVKNKKTKKKKTIEIEVPVDEETGEVFTEDELKKLLEKLGIEVEEVKIVEIEKESAG [r14_93_TrROS_Hall] | 0.601 ± 0.15 kcal/mol | 0.76 ± 0.21 kcal/mol | 0.886 ± 0.047 kcal/mol |
| SAGGSAGGATTEINLPLKVPGSGVTITKMTYDPNKDVYFVTATFPDGTKKTIKVKSLEELKKLLSAGGSAGG [r6_548_JUSTAS] | 2.52 ± 0.046 kcal/mol | 3.11 ± 0.15 kcal/mol | 3.83 ± 0.24 kcal/mol |
| SAGGSAMKVIRIRPDDPRVKELLKKLEDAGYEVRYDEETGELYVTLPDGKVLKFKSLEELKKAGFESAGGSA [r15_94_TrROS_Hall] | 2.19 ± 0.1 kcal/mol | 1.93 ± 0.088 kcal/mol | 1.63 ± 0.029 kcal/mol |
| SAGGKIKVTVEKEENGTYRVTVEITLPDGKKITITVTVPPGVKTEEEAKKLAEEKVKELLKKLGIKPSAGGS [r8_464_TrROS_Hall] | 4.27 ± 0.14 kcal/mol | 4.11 ± 0.16 kcal/mol | 3.72 ± 0.15 kcal/mol |
| SAGGSAGMNSEITLTIPVPHPRDEEGRVLPLSPEAIEKELKEKGYNVKIKEVKTSPSTITVTLKIISAGGSA [r15_225_JUSTAS] | 1 ± 0.082 kcal/mol | 0.957 ± 0.072 kcal/mol | 0.864 ± 0.053 kcal/mol |
| SAGGSAGGSSGTVTLRLRFRVVDLDPATGEASEHEFELTLTVPIELPAAAPPATPTYGLTLPGSAGGSAGGS [r12_140_TrMRF] | 2.79 ± 0.074 kcal/mol | 2.39 ± 0.16 kcal/mol | 0.895 ± 0.12 kcal/mol |
| SMMYLVKIKVRNKETGELVEEIELVVESEEEAEKIAEELAEELGLEVEVEVKRISPEELEDPEILKELLESA [r9_864_TrROS_Hall] | 3.53 ± 0.088 kcal/mol | 3.27 ± 0.23 kcal/mol | 2.77 ± 0.13 kcal/mol |
| SAGGSAGGSMPKTYSFKVKSKEEIVKLIEELKKLGAKKVEVKELPDGYELYVEVGDSVIKVYSSAGGSAGGS [r12_846_TrMRF] | 1.1 ± 0.16 kcal/mol | 1.24 ± 0.13 kcal/mol | 1.31 ± 0.065 kcal/mol |
